From the DeepSol protein solubility set

Test: soluble on expression in E. coli; label from the status in PepcDB or PDB records

Row | Sequence | soluble on expression in E. coli
1 | MGSDKIHHHHHHMSESAIADFVSSFIPDTATHVEPVRGRVVMSKRRIVLAADDEKTTIPLNGVFDVQHETAPGDLARFFEDTVTIAYEHDEDRHVAVIEGGGSTVDRFVTLVFKALVHGTTVYAKHPARRGGRITDQPFEKGNLALSPGDLTITGDADTTIDLSTVSHFERVDREVNGSNKQLLSVRHMGSTGPITTELALSSGRKMNLLGRYIRLQYTHLKQELADVTLTSEEIEALVAIYSSGPNASLAAVLGVDASRVTMLLNDLIEKELVTDDDGIALTSLGRAAVSEHIEDVNL | not soluble
2 | MGSDKIHHHHHHMSFSNEDRDVFIIKTDRMIDRGALMSRYSRASDPDIRSVFHREFEGNQKRSEDFYRRIFLEYGDESIAELVTAQVGIQNVSNVISKVIEEIRIGLSYLEKSTRYVAYDRKVDGHYLFMQAEKIGLSGEAAREYTDLCNRLFDLYSSTLPRIEEEISRQWPIESFDFNIDGNPRNYKELDENGRKLAQKSYRSSVRSRALDDARFILPASTLTNMGVSGNGRSFIHLIQKLMEYGVPESERLAHDLYEELKGEFPQIIDDALSQHGQDIINYKRSLASLFPYTDGGRFEKVRLIKYSNEREEMQKVLALLMYPFAEDASGIISRIKAMELSEASAILERIRDLRKNRRMKVGRPFEAVNYVFEVTTNYGAFRDLQRHRFLSIVRKPLTVSYGFDVPPIIAKMPDLSEEYAEAMKDAERVYRIIKERYGAWIAQYAVPFAYRYPVVFTTNLAEATYFIELRSTPQAHFDLRDIAIRMYNEIKSVHPSLAGIIKFVDTGDYPLGRLSAEVRKNVKAGGI | not soluble
3 | MGSDKIHHHHHHMSGKLTVITGPMYSGKTTELLSFVEIYKLGKKKVAVFKPKIDSRYHSTMIVSHSGNGVEAHVIERPEEMRKYIEEDTRGVFIDEVQFFNPSLFEVVKDLLDRGIDVFCAGLDLTHKQNPFETTALLLSLADTVIKKKAVCHRCGEYNATLTLKVAGGEEEIDVGGQEKYIAVCRDCYNTLKKRV | not soluble
4 | MGSDKIHHHHHHMSHRKALLIHNGNAANKNIEKALGAVVPVLSHHLDEVIIKQTKKKDHAYHFCRSIDDSVDTVFILGGDGTIHQCINAISALERKPAVGILPGGTSNDFSRVLGIPQNLAKAAEALMAGKKTSVDVCQMNDRYFLNFWGIGLIAETSNQINETEKALLGKISYFTSALRTVSSAASFPMTLKIDGEEIKEEAVMLLVMNGQYIGTNRIPLPDASIEDGLLDVLICRNTNLTALRELMSMEQGSIDRFTGELSYVQASRIEIETDTAKKADMDGEVYTHTPAVIQVLPQHIDMLVPANE | not soluble
5 | MGSDKIHHHHHHMSIEAYDQLAIFAVVARERSFTRAAARLGMSQPALSRAMRQLEERLGIRLLARTTRSVSATEAGEHLLRVVAPRFEEIDTELALLSQFRDKPAGRLRITAGEHPAVTILQPALAKILPDHPDIRVEVIVDYGLTDIVAEGYDAGVRLGEQIAKDMIAVRIGPEVRMAVVGSPDYFARHPRPRTPRDLIRHNCIAIRLPTYGGIFPWEFEKKGEELKVRVEGQLVFNNIAMRLDAALRGLGLTYMPEDLVKAHVREGVLVRVLSDWCPPIPGYHLYYPSRRQSSPAFTVLRDALRYLG | not soluble
6 | MGSDKIHHHHHHMSIFVKTFGGTRVIKDNDIVSARDWPSQKAFALFRYLIFRRNEEVSVEEIYNLFWEDMDDTFAKSNLNTTLHIIRKTTGITSEELFVKGDLCCFFPGGEITIDADIFEECHRNLMKATSDAEREKLLKRMFEIYTGPFLVEDIFAEWVQEIREIYESWYSDVLKELFKLYLSKKDYDAALEMVNAYFQREPYDEDMYYRAIEVLLKKGDITRAKRVYDKLSSHLMEIGIKPRLKFDDFLSKRDSEFMLNGNKAVVVDEKLFERFLFLESRRREKSFVLVEVKLTDKSISTEDVSQRVASQLRKGDVITFSGETIRILFHCPEQRRPTMEKRVVDALEKVGVKKGQYEIS | not soluble
7 | MGSDKIHHHHHHMSILEVKNLSHGFGDRAIFEDVSFRLLKGEHIGLVGANGEGKSTFMSIVTGKMLPDEGKVEWSKYVTAGYLDQHSVLAERQSVRDVLRTAFDELFKAEARINDLYMKMAEDGADVDALMEEVGELQDRLESRDFYTLDAKIDEVARALGVMDFGMDTDVTSLSGGQRTKVLLAKLLLEKPDILLLDEPTNYLDAEHIDWLKRYLQNYENAFVLISHDIPFLNDVINIVYHVENQQLTRYSGDYYQFQEVYAMKKSQLEAAYERQQKEIADLKDFVARNKARVATRNMAMSRQKKLDKMDIIELQSEKPKPSFDFKPARTPGRFIFQAKNLQIGYDRPLTKPLNLTFERNQKVAIIGANGIGKTTLLKSLLGIISPIAGEVERGDYLELGYFEQEVEGGNRQTPLEAVWNAFPALNQAEVRAALARCGLTTKHIESQIQVLSGGEQAKVRFCLLMNRENNVLVLDEPTNHLDVDAKDELKRALKEYRGSILMVCHEPDFYEGWIDQIWDFNNLT | not soluble
8 | MGSDKIHHHHHHMSISLNTCILILKEHHLLKSSAVQDTVATKMDYVSYDSRDIQTNTLFFCKGAGFRPTYLSMAKSNGANCYVAEQPYPEGKGMHALIVRDVSKAMALLSAAFFRFPQDDLYVVAFTGTKGKTTSAYFLKGMLDQANGGRTALISSVNDVVGPKPEDSFKSSLTTPESLDLFRDMRTAVDNGMTHLVMEVSSQAYKKNRVFGLTYDLGFFLNISPDHIGPNEHPNFADYLHCKLQLMVNSRKCIINAETANFNEVYAAATTTTNPDSIYLFAREDFENPDLDVPIDFRFASQELDMKETRFKLFCATDKAKKLPINGDYTLKMLGDFNESNGTAAIIGAGLAGLNHDQCAKGIRNVTIPGRMQTERTKEHGMVVVDYAHNKASMMALMRFMQNEFNDPKIIVVVGAPGDKGVSRRPGFSESLSAYADKAFLTTDDPGFEDPKSIAEEIDAGIDHSKCDVTIELDRKKAIHDAIASAGPDDVVLICGKGADAFQKIRGVDTPYPSDIVVAQQVINELEGQDEHFRK | not soluble
9 | MGSDKIHHHHHHMSISVKSNRALFDLDLLRAIVVVADCGSFTTAAARLHSTQSTISQKVRRLEDMVGHRLLVRGNRDVLPTDAGQTLLGYARHMLALNDQMLEALAGAMVGTTVRLGVPEDFVGGRTTNALSAFSRLHPQVKLEVTSGLCRDLSQAYDNGELDLVLLKQRRNSREGVACWPERLQWIDSARTPAFELDPIPLVTFPPRGLYREDMINAIEGMGRRWRISFTSSSLSGIQAAVADGMGISLLPPRAATGEHRVLGAGQGLPEVDSYEIVIVHRPTADVMVKALAEVMTQLLAGGGI | not soluble
10 | MGSDKIHHHHHHMSKFINPFTDYGFKLIFGREVSKDLLIEFLNDLLEGERVITDLTFLNNEQLPDYPEGRGIIYDVYCTTDTGEKIIVEMQNRMQSNFKERSIFYLSRAIVNQGRTGHDWKFEIKAVYGVFLMNFIMDKNIKLRTDVILADKETGELFSEKFRQIFIALPLFKKSEEECETNFERWIYILNNMETLKRLPFKARKAVFEKLEEIADVASMSPKERELYDNSVKVYRDYLVTMDAAEKEGIKKGMKEGMKEGLKKGLEEGLEEGLKKGREEALNIFQTAIDMKKQGIDNQLIAEKTGLPLSLIESLK | not soluble
11 | MGSDKIHHHHHHMSKLDAFIQQAVTAMPISGTSLIASLYGDALLQRGGEVWLGSVAALLEGLGFGERFVRTALFRLNKEEWLDVVRIGRRSFYRLSDKGLRLTRRAEHKIYRASAPEWDGTWLLLLSEGLEKNVLADVKKQLLWQGFGALAPSLLASPSQKLADVQSLLHEAGVAENVICFEAHSPLALSRAALRDRVEECWHLTEQNEMYEAFIALFRPLLPLLRDSEPSELTPERCFQIQLLLIHFYRRVVLKDPLLPEELLPAHWAGQTARQLCINIYQRVSPGALAFVSEKGESSVGELPAPGPLYYQRFGGLPGA | not soluble
12 | MGSDKIHHHHHHMSKLLMIGTGPVAIQLANICYLKSDYEIDMVGRASTSEKSKRLYQAYKKEKQFEVKIQNEAHQHLEGKFEINRLYKDVKNVKGEYETVVMACTADAYYDTLQQLSLETLQSVKHVILISPTFGSQMIVEQFMSKFSQDIEVISFSTYLGDTRIVDKEAPNHVLTTGVKKKLYMGSTHSNSTMCQRISALAEQLKIQLEVVESPLHAETRNSSLYVHPPLFMNDFSLKAIFEGTDVPVYVYKLFPEGPITMTLIREMRLMWKEMMAILQAFRVPSVNLLQFMVKENYPVRPETLDEGDIEHFEILPDILQEYLLYVRYTAILIDPFSQPDENGHYFDFSAVPFKQVYKNEQDVVQIPRMPSEDYYRTAMIQHIGKMLGIKTPMIDQFLTRYEASCQAYKDMHQDQQLSSQFNTNLFEGDKALVTKFLEINRTLS | not soluble
13 | MGSDKIHHHHHHMSKTKEQVVELAQKHGITIQEGSLILNESGLDFQVVFALDVNGKRWVLRLPRREDVVPSTAKEKKTLELIAPHLSVQVPNWEVYSVEMIAYKQLKGVPAATIDHGKKAYVWEMDHTNVSDRFIDTLASGMASLHQIKQDEARRAGVPAEQATEARERMSVRMEKVKSEFGVSEPLWARWQKWLHHDALWPAETGLVHGDLHAGHILIGEQTEVTGFIDWTEAQVTDLSEDFVPHYRIFGEAALNRLIAAYEEAGGYVWPSMKEHVIEREAAFPVAIAEFALKSGIGEYKRMAKEVLGVAE | not soluble
14 | MGSDKIHHHHHHMSLLSDEEVNSLSIQRMIFHVVDPALENPTFLAEVNPPQCVDFFVERVKETLKGSAYEFVPGAGIPNLLHRALPGPDGKDDFITVSHALAERFKDKVKQDKRLAPGVLMLFALKTNGNNQLVAVIKYEHQQVVSYSYVKDTNGSPVLDADGNPVPDLKTLVETFTKDRKAMQKSAVIRFQNINSSGGGTFSSSAVVIDHSSGRYRDATQHFANFLDIRRALKPSELTKRLEDAAVEAIKAHRSEVPTEIAKAPKRHVRTAMSRLDGFDFEKPEEFLGAVLQGVSPDSKILKTFKSKLASKNISTEAFKFEGATPPPAEYRRVVTNEGVTLLFSAGHEEKKNVEIQDEENGGVKITIRTTGLERNDELEKMPRLPD | not soluble
15 | MGSDKIHHHHHHMSLLSVSDVGKAYKTYRSELQRIAHWFFLPTKASSEHWVLKHINFAIEPGEAIGIIGQNGAGKSTLLKMITGTLQPTQGRVQVNGRIAAILELGMGFNPELSGRQNVYHAAGLMGFDVQQINDVIDDIEAFAEIGEYFDEAVRTYSSGMQMRVAFAVATAFRPEILIVDEALSVGDSYFQHKSFERIREFQRLGTSLLIVSHDRGAIQSLCSRALLLENGSIIKDGPPEQVMDYYNALIAEKENSTVQVKQLADGTVQTQSGSGEATIGTVALYDMQGTPVEFVAVGDKVTLSVQVEVHAPIPELVVGYVIKDRLGQHVFGTNTHHLGKAQKALETGEKLEYRFDFEMNLGPGSYSVAVALHANEVHIGSNYEWRDLALVFNVVNTSKPQFVGMAWVPTAVECIR | not soluble
16 | MGSDKIHHHHHHMSLLVKAYRYGYTIARVTPASACWRYVGFAAYRLGTAEVVHVHEPSREVCIVVLTGTVDIETADTTWRSLGSRDSVFEDAAPYAVYLPPNVRATVRACRDAEIGVASAPARGGYPARLIEPASMKRSTRGKGLNTRYVCDILPQTEPAESLLVVEVRTPGGHASSYPPHKHDTDNVPQESSLEETYYHRLDPPQGFAFQRVYTDMRDIDESMAVEDHDVVMVPRGYHPVVVPYGYDSYYLNVMAGGKRVWHFRNDPAHEWIINKDA | not soluble
17 | MGSDKIHHHHHHMSLPGSKLEEARRLVNEKQYNEAEQVYLSLLDKDSSQSSAAAGASVDDKRRNEQETSILELGQLYVTMGAKDKLREFIPHSTEYMMQFAKSKTVKVLKTLIEKFEQVPDSLDDQIFVCEKSIEFAKREKRVFLKHSLSIKLATLHYQKKQYKDSLALINDLLREFKKLDDKPSLVDVHLLESKVYHKLRNLAKSKASLTAARTAANSIYCPTQTVAELDLMSGILHCEDKDYKTAFSYFFESFESYHNLTTHNSYEKACQVLKYMLLSKIMLNLIDDVKNILNAKYTKETYQSRGIDAMKAVAEAYNNRSLLDFNTALKQYEKELMGDELTRSHFNALYDTLLESNLCKIIEPFECVEISHISKIIGLDTQQVEGKLSQMILDKIFYGVLDQGNGWLYVYETPNQDATYDSALELVGQLNKVVDQLFEKASVLY | not soluble
